Test results as given in patent publication US20080311122A1, “Antagonists of Hmgb1 and/or Rage and Methods of Use Thereof” (Medimmune, LLC, priority 2005, published 2008).
“Also recorded” adds a separate entry of the source.

T1: recombinant HMG1 binding to RAGE-Fc (Homo sapiens, UniProt P09429)
T1 construct: made in house; host or cells: E. coli (HMG1)
T1 sequence (P09429 1-215): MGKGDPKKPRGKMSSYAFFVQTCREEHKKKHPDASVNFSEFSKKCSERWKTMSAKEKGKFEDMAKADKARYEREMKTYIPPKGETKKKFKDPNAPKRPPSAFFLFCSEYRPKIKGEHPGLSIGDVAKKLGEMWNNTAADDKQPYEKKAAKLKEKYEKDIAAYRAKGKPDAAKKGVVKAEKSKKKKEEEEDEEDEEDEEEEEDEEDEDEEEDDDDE

T2: HMG2 (Bos taurus, UniProt P40673)
T2 construct: from tissue; host or cells: calf thymus (as read from the sentence)
T2 sequence (P40673 1-209): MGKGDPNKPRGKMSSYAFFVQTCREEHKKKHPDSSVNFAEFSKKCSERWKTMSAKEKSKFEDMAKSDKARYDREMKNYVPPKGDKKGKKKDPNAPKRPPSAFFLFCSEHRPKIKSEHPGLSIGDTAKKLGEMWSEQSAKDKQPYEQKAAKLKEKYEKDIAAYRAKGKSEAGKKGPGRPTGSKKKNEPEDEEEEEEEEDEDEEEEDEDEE


Experiments:
[1] = target: T1, recombinant HMG1 binding to RAGE-Fc; assay: HMG1 binding to RAGE-Ig by ELISA; conditions: at the concentrations tested
Experimental: HMG1 binding to RAGE-Ig by ELISA: 50 μl/well of RAGE-Fc fusion protein at 5 μg/ml in PBS was added to each well of an ELISA plate and incubated overnight at 4° C. The plate was then blocked with 200 μl of 5% milk at 37° C. for 1 hr and washed 3× with PBS/Tween. 50 μl/well of diluted HMGB1 solution. For dose curves, HMGB1 concentrations started at 4 ug/ml in PBS. For antibody blocking the HMGB1 was preincubated in another plate with human anti-HMG1 antibodies or buffer, then transferred to the RAGE-coated plate. The plates were then incubated at room temperature for 2 hours and washed 3×. To detect any HMG1 bound to the immobilized RAGE-Fc a mixture of biotinylated mouse anti-HMG1 mAbs (10D4, 4H11, 3E10 and 5C12) each at 1 ug/ml, total Ab: 4 ug/ml, were added to each well and the plate was incubated for 1 hour at room temperature. The plate was then washed and Strepavidin-HPR was added to each well and incubated 15 min. The plate was then washed 3× and blotted dry. 100 μl of TMB developing agent was added and the plate read at 650 nm. Values were calculated as percent of inhibition with HMG1 alone equal to 0% inhibition. The data in FIG. 9 and summarized in Table 1 represent the average of two separate experiments.

[2] = system: HMG1 (recombinant, native; immobilized, soluble); assay: Direct and sandwich (capture) ELISA comparing forms of HMG1; assay type: binding; conditions: two ELISA formats, rHMG1
Experimental: Direct ELISA (immobilized HMG1): Individual wells of a 96-well immunoplate (EIA/RIA plate, High binding, Costar) were coated with HMGB-1 at 5 μg/ml in PBS at 4° C. overnight. The plate was then blocked with 4% milk powder dissolved in PBS at 37° C. for 1 hour. The blocking solution was removed and replaced with human anti-HMG1 antibodies at various concentrations (see FIG. 4A). The plate was then washed (ELX-405 Plate washer, BIO-TEK) and secondary antibody (anti-human IgG-HRP, PIERCE) was added at a final concentration of 1:125,000 at 37° C. for 1 hour. HRP activity was detected with Sureblue HRP substrate (KPL). Plates were read at 450 nm using a Kinetic Microplate Reader (Molecular Devices).
Sandwich ELISA (soluble HMG1): Immunoplates (EIA/RIA plate, High binding, Costar) were coated with anti human IgG Fc at 10 μg/ml in PBS (pH 7.2) and incubated at 4° C. overnight. The coating reagent was removed and the plates were rinsed briefly with PBS. The plates were then blocked with 4% milk for 1 hour at 37° C. and rinsed with PBS. The anti-HMG1 antibodies were diluted in 4% milk. For serial dilutions, the antibodies were used at a starting concentration of 20 μg/ml. The diluted anti-HMG1 antibodies were then added into plate and incubated for 1 hr at 37° C. The plate was then washed 10 times with PBST (PBS/0.1% tween 20) and incubate with antigen (HMGB1, 2 μg/ml; or 0.7 μg/ml for native HMGB1) in 4% milk and incubated at 37° C. for 1 h. The plate was then wash 10 times and incubated with mouse anti-HMGB1, 1 μg/ml in 4% milk at 37° C. for 1 h. The plate was washed 10 times and incubated with anti-mouse IgG-HRP at 1:1000 at 37° C. for 1 h. The plate was then washed and developed. HRP activity was detected with Sureblue HRP substrate (KPL). Plates were read at 450 nm using a Kinetic Microplate Reader (Molecular Devices).

[3] = Differential scanning calorimetry; assay type: physicochemical; design: unit: °C; conditions: in °C (unit assumed)
Experimental: Differential Scanning Calorimetry: Thermal melting temperatures (Tm) were measured with a VP-DSC (MicroCal, LLC) using a scan rate of 1.0° C./min and a temperature range of 25-120° C. A filter period of 8 seconds was used along with a 5 minute pre-scan thermostating. Samples were prepared by dialysis into 25 mM Histidine-HCl, pH 6 using Pierce dialysis cups (3.5 kD). Average Mab concentrations were 50 μg/mL as determined by A280. Melting temperatures were determined following manufacturer procedures using Origin software supplied with the system. Briefly, multiple baselines were run with buffer in both the sample and reference cell to establish thermal equilibrium. After the baseline was subtracted from the sample thermogram, the data were concentration normalized and fitted using the deconvolution function.

HMG2 = target: T2, HMG2; assay: Binding to HMG1 vs. HMG2 ELISA; design: species or system calf; conditions: immobilized antigen
Experimental: Binding to HMG1 vs. HMG2: Ultra high-binding ELISA plates (ThermoLab systems, #3855) were coated with either 5 ug/mL of Calf thymus HMGB1 or HMBG2 diluted in 10 mM Phosphate buffered saline (PBS), pH 7.2 and incubate overnight at 4 degrees. The plates were washed twice with Ca and Mg free PBS and 100 microliters of anti-HMGB1 antibody diluted in 10 mM PBS, pH 7.2+1% bovine serum albumin (BSA) to a final concentration of 10 ug/mL was added to each well and the plates were incubated 1 hour at room temperature. The wells were washed three times with 100 μl of PBS, pH 7.2. HRP labeled goat-anti-human IgG Kappa-chain (KPL, #14-10-10) and goat-anti-human IgG Lambda-chain (KPL, #14-10-11) were diluted in 10 mM PBS+1% BSA 1:1000 and 100 μl were added to each well and incubated for 1 hour at room temperature. The wells were then washed three times with 100 μl of PBS, pH 7.2. OPD substrate (Pierce chemical company, #34006) was prepared following the manufacturers instructions and 100 μl of prepared substrate was added to each well and the plates incubated at room temperature in the dark for 20-30 minutes. The reaction was stopped with the addition of 100 μl of 2M H2SO4, and the plates read on a plate reader at a wavelength of 490 nm.

[4] = Isoelectric focusing gel electrophoresis; assay type: physicochemical
Experimental: Isoelectric Focusing Gel Electrophoresis: Isoelectric points were determined using a Pharmacia Biotech Multiphor 2 electrophoresis system with a multi temp 3 refrigerated bath recirculation unit and an EPS 3501 XL power supply. Pre-cast ampholine gels (Amersham Biosciences, pI range 2.5-10) were loaded with 5 μg of protein. Broad range pI marker standards (Amersham, pI range 3-10, 8 μL) were used to determine relative pI for the Mabs. Electrophoresis was performed at 1500 V, 50 mA for 105 minutes. The gel was fixed using a Sigma fixing solution (5×) diluted with purified water to 1×. Staining was performed overnight at room temperature using Simply Blue stain (Invitrogen). Destaining was carried out with a solution that consisted of 25% ethanol, 8% acetic acid and 67% purified water. Isoelectric points were determined using a Bio-Rad Densitometer relative to calibration curves of the standards.

relative binding to HMG1 and HMG2 (HMG2)	Molecule	block of recombinant HMG1 binding to RAGE [1]	binding to immobilized versus soluble HMG1 [2]	Tm [3]	PI [4]
	G16: human anti-HMG1 antibody; VL/VH aa SEQ ID NO: 42/44 (antibody, listed as Homo sapiens, V domains shown) VH: EVQLLESGGGLVQPGGSLRLSCAASGFTFSWYKMTWVRQAPGKGLEWVSSISPSGGFTSYADSVKGRFTISRDNSKNTLYLQMNSLRAEDTAVYYCARDLDIRHAFDIWGQGTMVTVSS VL: AQDIQMTQSPGTLSLSPGESGTLSCRASESVSSRHFAWYQQKPGQAPRLLIYGASSRPTGIPDRFSGSGSGTDFTLTLSRLEPEDFAVYFCQYYGSSPYTFGGGTKVEMK	did not inhibit RAGE binding; also recorded: do not at the concentrations tested	bound slightly better to immobilized rHMG1		
specific for HMG1	S14: human anti-HMG1 antibody; VL/VH aa SEQ ID NO: 66/68 (antibody, listed as Homo sapiens, V domains shown) VH: EVQLLESGGGLVQPGGSLRLSCAASGFTFSWYETGWVRQAPGKGLEWVSGISPSGGYTQYADSVKGRFTISRDNSKNTLYLQMNSLRAEDTAVYYCARSGVGATKIFDYWGQGTLVTVSS VL: AQDIQMTQSPSSLSASVGDRVTIICRANERINTYLNWYQQKPGKAPKLLISGTSSLESGVPSRFSGSGSGTEFTLSISSLQPEDFASYYCQQSYSSPYTFGQGTNLEIR	did not inhibit RAGE binding; also recorded: do not at the concentrations tested		70.7	8.62
specific for HMG1	G34: human anti-HMG1 antibody; VL/VH aa SEQ ID NO: 50/52 (antibody, listed as Homo sapiens, V domains shown) VH: EVQLLESGGGLVQPGGSLRLSCAASGFTFSHYMMGWVRQAPGKGLEWVSRISPSGGGTVYADSVKGRFTISRDNSKNTLYLQMNSLRAEDTAVYYCARGGNWNYISYYYYYLDVWGKGTTVTVSS VL: AQDIQMTQSPSSLSASVGDRVAITCRASQSIDTYLNWYQQKPGKAPKLLIYAASKLEDGVPSRFSGSGTGTDFTLTIRSLQPEDFASYFCQQSYSSPGITFGPGTKVEIK	do not at the concentrations tested	bind better to soluble rHMG1	~75	~8.7
specific for HMG1	G35: human anti-HMG1 antibody; VL/VH aa SEQ ID NO: 54/56 (antibody, listed as Homo sapiens, V domains shown) VH: EVQLLESGGGLVQPGGSLRLSCAASGFTFSWYKMVWVRQAPGKGLEWVSSIVPSGGITIYADSVKGRFTISRDNSKNTLYLQMNSLRAEDTAVYYCARVQQWLGRPYFDYWGQGTLVTVSS VL: AQDIQMTQSPLSLPVTPGEPASISCRSSQSLLHGNGYNYLDWYLQRPGQSPQLLIYSGSNRASGVPDRFSGSGSGTDFTLKISRVEAEDVGVYYCMQSLQSRTFGQGTKVEIK			69	8.61
specific for HMG1	G12: human anti-HMG1 antibody; VL/VH aa SEQ ID NO: 38/40 (antibody, listed as Homo sapiens, V domains shown) VH: EVQLLESGGGLVQPGGSLRLSCAASGFTFSYYMMTWVRQAPGKGLEWVSSISPSGGYTIYADSAKGRFTISRDNSKNTLYLQMNSLRAEDTAVYYCARALSTGSFWDYWGQGTLVTVSS VL: AQDIQMTQSPGTLSLSPGERATLSCRASESLTSTYVAWYQHKPGQAPRLLIHGGSTRATGIPVRFSGSGSGTDFTLTIATLEPEDFAVYYCQQYGSSPYTFGQGTKLEIK	did not inhibit RAGE binding; also recorded: do not at the concentrations tested	little difference in binding to immobilized or soluble HMG1	78.8	8.6
